Measurements reported in the RNAGym collection of RNA variant scans (doi:10.7554/elife.90254).

B1: LINE1-full (parent)
chain: UACGUAGGUGGUUUUCCCCUGAUAGUGCUAAGGGGGCCUGGAAGUUUGGACUGGGCAGAGCUCAACACAGCGUGGCAAAGUGGCUGUGGCUAGACUGCCUCUCUGGAUUCCUCGUCACUCAGCAGGGCAUCUCUGAGAGAAAUGCC

Variants of: B1
Assay: self-cleavage, relative activity (ratio to wild type); higher = more cleavage; in vitro, sequencing; the parent is a self-cleaving ribozyme

Compared with UACGUAGGUGGUUUUCCCCUGAUAGUGCUAAGGGGGCCUGGAAGUUUGGACUGGGCAGAGCUCAACACAGCGUGGAAAAGUGGCUGUGGCUAGACUGCCUCUCUGGAUUCCUCGUCACUCAGCAGGGCAUCUCUGAGAGAAAAGCC [C76A U143A], UACGUAGGUGGUUUUCCCCUGAUAGUGCUAAGGGGGCCUGGAAGUUUGGACUGGGCAGAGCUCAACACAGCGUGGGAGAGUGGCUGUGGCUAGACUGCCUCUCUGGAUUCCUCGUCACUCAGCAGGGCAUCUCUGAGAGAAAUGCC [C76G A78G] is higher in self-cleavage: 1.65 for the first, 1.7 for the second.

Compared with UACGUAGGUGGUUUUCCCCUGAUAGUGCUAAGGGGGCCUGGAAGUUUGGACUGGGCAGAGCUCAACACAGCGUGGGAAAGUGGCUGUGGCUAGACUGCCUCUCUGGAUUCCUCGUCACUCAGCAGGGCAUCUCUGAGAGAGAUGCC [C76G A141G], UACGUAGGUGGUUUUCCCCUGAUAGUGCUAAGGGGGCCUGGAAGUUUGGACUGGGCAGAGCUCAACACAGCGUGGGAAAGUGGAUGUGGCUAGACUGCCUCUCUGGAUUCCUCGUCACUCAGCAGGGCAUCUCUGAGAGAAAUGCC [C76G C84A] is lower in self-cleavage: 2.47 for the first, 0.14 for the second.

Compared with UACGUAGGUGGUUUUCCCCUGAUAGUGCUAAGGGGGCCUGGAAGUUUGGACUGGGCAGAGCUCAACACAGCGUGGGAAAGUGGCUGUGGCUAGACUGCCUCCCUGGAUUCCUCGUCACUCAGCAGGGCAUCUCUGAGAGAAAUGCC [C76G U102C], UACGUAGGUGGUUUUCCCCUGAUAGUGCUAAGGGGGCCUGGAAGUUUGGACUGGGCAGAGCUCAACACAGCGUGGUAAAGUGGCUGUGGCUAGGCUGCCUCUCUGGAUUCCUCGUCACUCAGCAGGGCAUCUCUGAGAGAAAUGCC [C76U A94G] is lower in self-cleavage: 2.25 for the first, 0.18 for the second.

First: UACGUAGGUGGUUUUCCCCUGAUAGUGCUAAGGGGGCCUGGAAGUUUGGACUGGGCAGAGCUCAACACAGCGUGGUAAAGUGGCUGUGGCUAGACUGCCUCUCUGGUUUCCUCGUCACUCAGCAGGGCAUCUCUGAGAGAAAUGCC [C76U A107U]
Second: UACGUAGGUGGUUUUCCCCUGAUAGUGCUAAGGGGGCCUGGAAGUUUGGACUGGGCAGAGCUCAACACAGCGUGGUAAAGUGGCUGUGGCUAGACUGCCUCUCUGGAUUCCUCGUCCCUCAGCAGGGCAUCUCUGAGAGAAAUGCC [C76U A117C]
The self-cleavage of the first is lower: 2.27 for the first, 2.66 for the second.

Going from UACGUAGGUGGUUUUCCCCUGAUAGUGCUAAGGGGGCCUGGAAGUUUGGACUGGGCAGAGCUCAACACAGCGUGGUAAAGUGGCUGUGGCUAGACUGCCUCUCUGGAUUCCUCGUCGCUCAGCAGGGCAUCUCUGAGAGAAAUGCC [C76U A117G] to UACGUAGGUGGUUUUCCCCUGAUAGUGCUAAGGGGGCCUGGAAGUUUGGACUGGGCAGAGCUCAACACAGCGUGGUAAAGUGGCUGUGGCUAGACUGCCUCUCUGGAUUCCUCGUCACUCAGCAGGGCUUCUCUGAGAGAAAUGCC [C76U A129U], the self-cleavage falls from 2.24 to 1.57.

Going from UACGUAGGUGGUUUUCCCCUGAUAGUGCUAAGGGGGCCUGGAAGUUUGGACUGGGCAGAGCUCAACACAGCGUGGUAAAGUGGCUGUGGCUAGACUGCCUCUCUGGAUUCCUCGUCACUCAGCAGGGCAUCUCUGAGGGAAAUGCC [C76U A138G] to UACGUAGGUGGUUUUCCCCUGAUAGUGCUAAGGGGGCCUGGAAGUUUGGACUGGGCAGAGCUCAACACAGCGUGGUAAAGUGGCUGUGGCUAGACUGCCUCUCUGGAUUCCUCGUCACUCAGCAGGGCAUCUCUGAGAGGAAUGCC [C76U A140G], the self-cleavage falls from 2.42 to 2.36.

Compared with UACGUAGGUGGUUUUCCCCUGAUAGUGCUAAGGGGGCCUGGAAGUUUGGACUGGGCAGAGCUCAACACAGCGUGGUAAAGUGGCUGUGGCUAGACUGCCUCUCUGGAUUCCUCGUCACUCAGCAGGGCAUCUCUGAGAGUAAUGCC [C76U A140U], UACGUAGGUGGUUUUCCCCUGAUAGUGCUAAGGGGGCCUGGAAGUUUGGACUGGGCAGAGCUCAACACAGCGUGGUAAAGUGGCUGUGGCUAGACUGCCUCUCUGGAUUCCUCGUCACUCAGCAGGGCAUCUCUGAGAGAACUGCC [C76U A142C] is lower in self-cleavage: 2.07 for the first, 0.92 for the second.

Going from UACGUAGGUGGUUUUCCCCUGAUAGUGCUAAGGGGGCCUGGAAGUUUGGACUGGGCAGAGCUCAACACAGCGUGGUAAAGUGGCUGUGGCUAGAUUGCCUCUCUGGAUUCCUCGUCACUCAGCAGGGCAUCUCUGAGAGAAAUGCC [C76U C95U] to UACGUAGGUGGUUUUCCCCUGAUAGUGCUAAGGGGGCCUGGAAGUUUGGACUGGGCAGAGCUCAACACAGCGUGGUAAAGUGGCUGUGGCUAGACUGCUUCUCUGGAUUCCUCGUCACUCAGCAGGGCAUCUCUGAGAGAAAUGCC [C76U C99U], the self-cleavage rises from 0.41 to 0.99.

Compared with UACGUAGGUGGUUUUCCCCUGAUAGUGCUAAGGGGGCCUGGAAGUUUGGACUGGGCAGAGCUCAACACAGCGUGGUAAAGUGGCUGUGGCUAGACUGCCUCUCUGGAUUCCUAGUCACUCAGCAGGGCAUCUCUGAGAGAAAUGCC [C76U C113A], UACGUAGGUGGUUUUCCCCUGAUAGUGCUAAGGGGGCCUGGAAGUUUGGACUGGGCAGAGCUCAACACAGCGUGGUAAAGUAGCUGUGGCUAGACUGCCUCUCUGGAUUCCUCGUCACUCAGCAGGGCAUCUCUGAGAGAAAUGCC [C76U G82A] is higher in self-cleavage: 2.15 for the first, 2.8 for the second.

Going from UACGUAGGUGGUUUUCCCCUGAUAGUGCUAAGGGGGCCUGGAAGUUUGGACUGGGCAGAGCUCAACACAGCGUGGUAAAGUGGCUGUGGCUAGACUGCCUCUCUCGAUUCCUCGUCACUCAGCAGGGCAUCUCUGAGAGAAAUGCC [C76U G105C] to UACGUAGGUGGUUUUCCCCUGAUAGUGCUAAGGGGGCCUGGAAGUUUGGACUGGGCAGAGCUCAACACAGCGUGGUAAAGUGGCCGUGGCUAGACUGCCUCUCUGGAUUCCUCGUCACUCAGCAGGGCAUCUCUGAGAGAAAUGCC [C76U U85C], the self-cleavage falls from 2.51 to 0.36.
